T1: APBA2_1, Q99767
T1 sequence (Q99767 563-664, limits assumed, looked up): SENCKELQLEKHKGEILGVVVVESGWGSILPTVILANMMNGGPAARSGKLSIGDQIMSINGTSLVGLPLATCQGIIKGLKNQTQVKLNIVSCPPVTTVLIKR

T2: DFNB31_3, Q9P202
T2 sequence (Q9P202 811-907, limits assumed, looked up): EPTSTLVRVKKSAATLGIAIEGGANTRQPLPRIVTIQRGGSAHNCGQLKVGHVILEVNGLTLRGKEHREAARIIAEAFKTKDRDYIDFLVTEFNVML

T3: DLG3_3, Q92796
T3 sequence (Q92796 374-475, limits assumed, looked up): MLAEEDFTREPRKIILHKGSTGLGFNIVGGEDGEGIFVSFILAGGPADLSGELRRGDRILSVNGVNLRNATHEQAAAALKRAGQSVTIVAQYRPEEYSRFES

T4: FRMPD1, Q5SYB0
T4 sequence (Q5SYB0 52-145, limits assumed, looked up): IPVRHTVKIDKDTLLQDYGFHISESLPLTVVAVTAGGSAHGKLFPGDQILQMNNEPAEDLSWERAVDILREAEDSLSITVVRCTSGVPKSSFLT

T5: GRIP1_2, Q9Y3R0
T5 sequence (Q9Y3R0 145-248, limits assumed, looked up): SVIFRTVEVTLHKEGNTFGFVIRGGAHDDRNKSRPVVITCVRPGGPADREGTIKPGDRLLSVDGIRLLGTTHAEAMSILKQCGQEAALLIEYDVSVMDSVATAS

T6: LNX2_3, Q8N448
T6 sequence (Q8N448 463-564, limits assumed, looked up): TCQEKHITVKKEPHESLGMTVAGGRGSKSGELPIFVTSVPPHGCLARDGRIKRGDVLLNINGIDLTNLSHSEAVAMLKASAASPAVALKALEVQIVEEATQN

T7: MPDZ_12, O75970
T7 sequence (O75970 1857-1958, limits assumed, looked up): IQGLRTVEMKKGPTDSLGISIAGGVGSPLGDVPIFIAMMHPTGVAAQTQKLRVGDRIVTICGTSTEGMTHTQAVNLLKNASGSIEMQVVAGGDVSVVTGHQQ

T8: MPDZ_5, O75970
T8 sequence (O75970 695-796, limits assumed, looked up): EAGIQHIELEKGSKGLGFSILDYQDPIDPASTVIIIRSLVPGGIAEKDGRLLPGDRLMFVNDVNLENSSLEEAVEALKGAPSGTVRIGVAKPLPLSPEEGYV

T9: PDZD2_2, O15018
T9 sequence (O15018 329-429, limits assumed, looked up): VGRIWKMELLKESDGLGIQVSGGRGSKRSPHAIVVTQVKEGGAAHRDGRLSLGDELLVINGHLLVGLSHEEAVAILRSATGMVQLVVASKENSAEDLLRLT

T10: PTPN13_1, Q12923
T10 sequence (Q12923 1088-1188, limits assumed, looked up): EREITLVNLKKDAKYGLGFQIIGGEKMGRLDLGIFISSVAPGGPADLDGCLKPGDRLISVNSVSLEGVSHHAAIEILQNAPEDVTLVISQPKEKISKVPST

T11: RAPGEF6, Q8TEU7
T11 sequence (Q8TEU7 525-625, limits assumed, looked up): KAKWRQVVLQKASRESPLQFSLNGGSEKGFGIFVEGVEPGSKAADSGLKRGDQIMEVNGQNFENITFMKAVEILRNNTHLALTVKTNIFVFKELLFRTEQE

T12: RHPN1, Q8TCX5
T12 sequence (Q8TCX5 508-602, limits assumed, looked up): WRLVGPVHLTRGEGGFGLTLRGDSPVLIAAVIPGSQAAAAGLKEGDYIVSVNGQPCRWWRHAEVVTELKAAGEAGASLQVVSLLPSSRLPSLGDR

B1: CRB2, Q5IJ48 (peptide)
chain: LKVPPEERLI
B2: FLVCR1, Q9Y5Y0 (peptide)
chain: MLSKQSESAI
B3: ABCC6, O95255 (peptide)
chain: YRLAQESGLV
B4: SLC2A7, Q6PXP3 (peptide)
chain: TASPAKETSF
B5: RAB9A, P51151 (peptide)
chain: RKPKPSSSCC
B6: TMEM225B, P0DP42 (peptide)
chain: ETQVTAETVI

target: AHNAK1, Q09666; test: holdup assay; parameters: key: below the threshold = too weak to quantify, mostly under pKd 3.1 to 4; details: plain residues with an end cap or a label only (N-terminal biotin on a linker: ado-ado)
Sequence (Q09666 4-100): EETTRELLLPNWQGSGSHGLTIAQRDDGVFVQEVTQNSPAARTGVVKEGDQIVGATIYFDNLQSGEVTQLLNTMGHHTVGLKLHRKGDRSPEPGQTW

pKd	Binder
below the threshold	B1
below the threshold	B2
below the threshold	B3
below the threshold	B4
below the threshold	B5
below the threshold	B6

target: T1, APBA2_1, Q99767; test: holdup assay; parameters: key: below the threshold = too weak to quantify, mostly under pKd 3.1 to 4; details: plain residues with an end cap or a label only (N-terminal biotin on a linker: ado-ado)

pKd	Binder
below the threshold	B1
below the threshold	B2
below the threshold	B3
below the threshold	B4
below the threshold	B5
below the threshold	B6

target: T2, DFNB31_3, Q9P202; test: holdup assay; parameters: key: below the threshold = too weak to quantify, mostly under pKd 3.1 to 4; details: plain residues with an end cap or a label only (N-terminal biotin on a linker: ado-ado)

pKd	Binder
below the threshold	B1
below the threshold	B2
3.94	B3
3.88	B4
3.9	B5
4.03	B6

target: DLG2_2, Q15700; test: holdup assay; parameters: key: below the threshold = too weak to quantify, mostly under pKd 3.1 to 4; details: plain residues with an end cap or a label only (N-terminal biotin on a linker: ado-ado)
Sequence (Q15700 189-283): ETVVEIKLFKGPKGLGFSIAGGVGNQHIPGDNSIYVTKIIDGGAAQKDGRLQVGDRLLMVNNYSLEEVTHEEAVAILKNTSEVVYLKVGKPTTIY

pKd	Binder
below the threshold	B1
below the threshold	B2
below the threshold	B3
4.06	B4
below the threshold	B5
4.07	B6

target: T3, DLG3_3, Q92796; test: holdup assay; parameters: key: below the threshold = too weak to quantify, mostly under pKd 3.1 to 4; details: plain residues with an end cap or a label only (N-terminal biotin on a linker: ado-ado)

pKd	Binder
below the threshold	B1
below the threshold	B2
below the threshold	B3
below the threshold	B4
below the threshold	B5
below the threshold	B6

target: T4, FRMPD1, Q5SYB0; test: holdup assay; parameters: key: below the threshold = too weak to quantify, mostly under pKd 3.1 to 4; details: plain residues with an end cap or a label only (N-terminal biotin on a linker: ado-ado)

pKd	Binder
below the threshold	B1
below the threshold	B2
below the threshold	B3
below the threshold	B4
below the threshold	B5
below the threshold	B6

target: FRMPD2_3, Q68DX3; test: holdup assay; parameters: key: below the threshold = too weak to quantify, mostly under pKd 3.1 to 4; details: plain residues with an end cap or a label only (N-terminal biotin on a linker: ado-ado)
Sequence (Q68DX3 1073-1166): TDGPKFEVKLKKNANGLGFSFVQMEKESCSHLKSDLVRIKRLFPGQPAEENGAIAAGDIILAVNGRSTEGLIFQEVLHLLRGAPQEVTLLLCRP

pKd	Binder
below the threshold	B1
below the threshold	B2
below the threshold	B3
below the threshold	B4
below the threshold	B5
below the threshold	B6

target: T5, GRIP1_2, Q9Y3R0; test: holdup assay; parameters: key: below the threshold = too weak to quantify, mostly under pKd 3.1 to 4; details: plain residues with an end cap or a label only (N-terminal biotin on a linker: ado-ado)

pKd	Binder
below the threshold	B1
below the threshold	B2
below the threshold	B3
below the threshold	B4
below the threshold	B5
below the threshold	B6

target: GRIP2_3, Q9C0E4; test: holdup assay; parameters: key: below the threshold = too weak to quantify, mostly under pKd 3.1 to 4; details: plain residues with an end cap or a label only (N-terminal biotin on a linker: ado-ado)
Sequence (Q9C0E4 238-339): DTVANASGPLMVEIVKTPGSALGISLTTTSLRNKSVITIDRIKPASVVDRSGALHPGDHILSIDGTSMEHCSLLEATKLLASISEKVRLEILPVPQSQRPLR

pKd	Binder
below the threshold	B1
below the threshold	B2
below the threshold	B3
below the threshold	B4
below the threshold	B5
below the threshold	B6

target: GRIP2_7, Q9C0E4; test: holdup assay; parameters: key: below the threshold = too weak to quantify, mostly under pKd 3.1 to 4; details: plain residues with an end cap or a label only (N-terminal biotin on a linker: ado-ado)
Sequence (Q9C0E4 934-1023): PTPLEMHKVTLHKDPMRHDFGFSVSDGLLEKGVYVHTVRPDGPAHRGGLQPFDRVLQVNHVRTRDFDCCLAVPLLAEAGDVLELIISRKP

pKd	Binder
below the threshold	B1
below the threshold	B2
below the threshold	B3
below the threshold	B4
below the threshold	B5
below the threshold	B6

target: HTRA2, O43464; test: holdup assay; parameters: key: below the threshold = too weak to quantify, mostly under pKd 3.1 to 4; details: plain residues with an end cap or a label only (N-terminal biotin on a linker: ado-ado)
Sequence (O43464 355-458): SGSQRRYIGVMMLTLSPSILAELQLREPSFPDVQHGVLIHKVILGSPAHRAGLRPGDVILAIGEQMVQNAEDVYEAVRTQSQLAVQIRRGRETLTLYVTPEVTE

pKd	Binder
below the threshold	B1
below the threshold	B2
below the threshold	B3
below the threshold	B4
below the threshold	B5
below the threshold	B6

target: Inadl_8, Q8NI35; test: holdup assay; parameters: key: below the threshold = too weak to quantify, mostly under pKd 3.1 to 4; details: plain residues with an end cap or a label only (N-terminal biotin on a linker: ado-ado)
Sequence (Q8NI35 1425-1530): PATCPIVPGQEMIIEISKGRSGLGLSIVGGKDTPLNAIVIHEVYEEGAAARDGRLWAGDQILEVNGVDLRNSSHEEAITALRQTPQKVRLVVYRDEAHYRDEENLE

pKd	Binder
below the threshold	B1
below the threshold	B2
below the threshold	B3
below the threshold	B4
below the threshold	B5
below the threshold	B6

target: LNX1_2, Q8TBB1; test: holdup assay; parameters: key: below the threshold = too weak to quantify, mostly under pKd 3.1 to 4; details: plain residues with an end cap or a label only (N-terminal biotin on a linker: ado-ado)
Sequence (Q8TBB1 371-470): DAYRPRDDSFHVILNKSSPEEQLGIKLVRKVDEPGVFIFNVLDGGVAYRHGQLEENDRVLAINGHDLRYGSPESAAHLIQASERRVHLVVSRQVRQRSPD

pKd	Binder
below the threshold	B1
below the threshold	B2
below the threshold	B3
below the threshold	B4
below the threshold	B5
below the threshold	B6

target: T6, LNX2_3, Q8N448; test: holdup assay; parameters: key: below the threshold = too weak to quantify, mostly under pKd 3.1 to 4; details: plain residues with an end cap or a label only (N-terminal biotin on a linker: ado-ado)

pKd	Binder
below the threshold	B1
below the threshold	B2
below the threshold	B3
below the threshold	B4
below the threshold	B5
below the threshold	B6

target: MAGI2_2, Q86UL8; test: holdup assay; parameters: key: below the threshold = too weak to quantify, mostly under pKd 3.1 to 4; details: plain residues with an end cap or a label only (N-terminal biotin on a linker: ado-ado)
Sequence (Q86UL8 410-522): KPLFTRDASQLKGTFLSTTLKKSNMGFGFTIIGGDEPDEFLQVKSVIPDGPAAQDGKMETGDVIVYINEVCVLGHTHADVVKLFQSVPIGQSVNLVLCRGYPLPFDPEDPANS

pKd	Binder
below the threshold	B1
3.8	B2
below the threshold	B3
below the threshold	B4
below the threshold	B5
below the threshold	B6

target: T7, MPDZ_12, O75970; test: holdup assay; parameters: key: below the threshold = too weak to quantify, mostly under pKd 3.1 to 4; details: plain residues with an end cap or a label only (N-terminal biotin on a linker: ado-ado)

pKd	Binder
below the threshold	B1
below the threshold	B2
below the threshold	B3
below the threshold	B4
below the threshold	B5
below the threshold	B6

target: T8, MPDZ_5, O75970; test: holdup assay; parameters: key: below the threshold = too weak to quantify, mostly under pKd 3.1 to 4; details: plain residues with an end cap or a label only (N-terminal biotin on a linker: ado-ado)

pKd	Binder
below the threshold	B1
below the threshold	B2
below the threshold	B3
below the threshold	B4
below the threshold	B5
below the threshold	B6

target: NHERF4_1, Q86UT5-2; test: holdup assay; parameters: key: below the threshold = too weak to quantify, mostly under pKd 3.1 to 4; details: plain residues with an end cap or a label only (N-terminal biotin on a linker: ado-ado)
Sequence (Q86UT5 other isoform, or with tags, fused parts or gaps): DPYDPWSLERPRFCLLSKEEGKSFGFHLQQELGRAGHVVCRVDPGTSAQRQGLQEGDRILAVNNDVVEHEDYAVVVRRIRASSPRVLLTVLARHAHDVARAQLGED

pKd	Binder
below the threshold	B1
3.6	B2
3.51	B3
4	B4
3.81	B5
below the threshold	B6

target: NOS1, P29475; test: holdup assay; parameters: key: below the threshold = too weak to quantify, mostly under pKd 3.1 to 4; details: plain residues with an end cap or a label only (N-terminal biotin on a linker: ado-ado)
Sequence (P29475 9-101): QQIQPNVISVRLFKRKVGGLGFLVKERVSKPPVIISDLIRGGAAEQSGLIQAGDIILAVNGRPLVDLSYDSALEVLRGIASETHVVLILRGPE

pKd	Binder
below the threshold	B1
3.79	B2
below the threshold	B3
below the threshold	B4
below the threshold	B5
3.53	B6

target: T9, PDZD2_2, O15018; test: holdup assay; parameters: key: below the threshold = too weak to quantify, mostly under pKd 3.1 to 4; details: plain residues with an end cap or a label only (N-terminal biotin on a linker: ado-ado)

pKd	Binder
below the threshold	B1
4.46	B2
3.51	B3
below the threshold	B4
4.35	B5
3.92	B6

target: T10, PTPN13_1, Q12923; test: holdup assay; parameters: key: below the threshold = too weak to quantify, mostly under pKd 3.1 to 4; details: plain residues with an end cap or a label only (N-terminal biotin on a linker: ado-ado)

pKd	Binder
below the threshold	B1
below the threshold	B2
below the threshold	B3
below the threshold	B4
below the threshold	B5
below the threshold	B6

target: T11, RAPGEF6, Q8TEU7; test: holdup assay; parameters: key: below the threshold = too weak to quantify, mostly under pKd 3.1 to 4; details: plain residues with an end cap or a label only (N-terminal biotin on a linker: ado-ado)

pKd	Binder
below the threshold	B1
below the threshold	B2
below the threshold	B3
below the threshold	B4
below the threshold	B5
below the threshold	B6

target: T12, RHPN1, Q8TCX5; test: holdup assay; parameters: key: below the threshold = too weak to quantify, mostly under pKd 3.1 to 4; details: plain residues with an end cap or a label only (N-terminal biotin on a linker: ado-ado)

pKd	Binder
below the threshold	B1
4.01	B2
below the threshold	B3
3.97	B4
below the threshold	B5
4.44	B6

target: SNX27, Q96L92; test: holdup assay; parameters: key: below the threshold = too weak to quantify, mostly under pKd 3.1 to 4; details: plain residues with an end cap or a label only (N-terminal biotin on a linker: ado-ado)

pKd	Binder
below the threshold	B1
4.4	B2
below the threshold	B3
5.48	B4
below the threshold	B5
5.39	B6

Source: paper PMC9482650, “Quantitative fragmentomics allow affinity mapping of interactomes” (Nature Communications, 2022)
